Experimental data as given in the nanobody polyreactivity screen of Harvey et al. (2022).

Assay: yeast display, Sf9 membrane polyspecificity reagent, FACS + sequencing; frameworks hold sequencing errors
Method in brief: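 After 36–48 hours of galactose induction, yeast (Saccharomyces cerevisiae BJ5465) displaying a synthetic nanobody library were stained at 4 °C for 1 hour with 10% biotinylated, detergent-solubilized Sf9 membrane reagent. Streptavidin microbeads enriched the stained cells before FACS sorting into low and high (top ~1%) gates on anti-HA and streptavidin fluorescence. Each clone's polyreactivity label reflects its gate of origin.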

Sequence	polyreactivity (PSR sort gate)
QVQLVESGGGLVQAGGSLRLSCAASGRIFPGYAMGWYRQAPGKERELVAAISTNGGRTYYADSVKGRFTISRDNAKNTVYLQMNSLKPEDTAVYYCNAARAVYTQKRFDSWGQGTQVTVSS	high polyreactivity
QVQLVESGGGLVQAGGSLRLSSAASGRIFDANDMGWYRQAPGQERELVAVISSRGGSTYYADSVKGRFTISRDNAKNTVDLQMNSLKPEEAAVYYCAKGLSVAGYDYWGQGTQVTVSS	low polyreactivity
QVQLVESGGGLVQAGGSLRLSCAASGSIFFIYAMGWYRQAPGKERELVAAISWSDDSTYYADSVKGRFTISRDNAKNTVYLQMNSLKPEDTAVYYCAARYYIGYGHRTYGYDYWGQGTQVTVSS	high polyreactivity
QVKLVESGGGLVQAGGSLRLSCAASGRTFYLYAMGWYRQAPGKERELVARITSGGTTNYADSVKGRFTISRDNAKNTVYLQMNSLKPEDTAVYYCAADPEGLGRVASRYFHFDYWGQGTQVTVSS	low polyreactivity
QVQLVESGGGLVQAGGSLRLSCAASGIIFQRNAMGWYRQAPGQERELVAAISSGGRTYYADSVKGRFTISRDNAKNTVYLQMNSLKPEDTAVYYCNAASYSRGRARYDYWGQGTQVTVSS	high polyreactivity
QVQLVESGGGLVQAGGSLRLSCAASGGIFKAYAMGWYRQAPGKEREFFAAITSSGGRTSYADSVKGRFTISRDNAKNNVYLQKNSLKQEDTAVYYCAAYGDGIVNSWDSYSEMDYWGQGTQVTVSS	low polyreactivity
QVQLVESGGGLGQAGGSLRLSCAASGSTFQTKAMGWYRQAPGKERELVAAINSGGGTNYADSVKGRFTISRDNAKNTVYLQMNSLKPEDTAVYYCATDVLPRKYVSDYPSGAYDYWGQGTQVTVSS	low polyreactivity
QVQLVESGGGLVQAGGSLRLSCAASGRIFYTNVMGWYRQATGKERELVAAISTGGGRTYYADSVKGRITISRDNAKNSVYLQMNSLKPEDTAVYDCAASGRYAIVWGDQYYGYYYWGQGTQVTVSS	high polyreactivity
QVQLVESGGGLVQAGGSLRLSCAASGSILLWNTMGWYRQAPGKERELVADIRLSASSTYYSDSVKGRITISRDNAKNTVYLQMNSLKPEDTAVSYSAADEYTPDYGQGYDYWGQGTQVTVSS	low polyreactivity
QVQLVESGGGLVQAGGSLRLSCAASGSIFVWNAMGWYIQAPRKERELVAAISYTDGSTYYADSVKGRFTISRDNAKNTVYLQMNSMNPEDTAVYYCAASTLKDIYLWFRVDYWGQCTQVTVSS	low polyreactivity
QVQLVESGGGLVQAGGSLRLSCADSGSIFKYYAMGWYRQAPGKERELDASISWSGGTTYYADSVKGRFTISRDNAKNTVYLQMNSLKPEDTAVYYCNARWWVRYSNKYDYWGQGTQVTVSS	high polyreactivity
QVQLVEAGGGFVQAGGRLRLSCAASGSIFTLNTRGWYSPAPGKEREWVAAMTGSGGITYSADSVKGRFTISRDKAKKTVYLQLNSLKPEETAVYYCAADTGYVHAGYWGQGTQVTVSS	low polyreactivity
QVQLVESGGGLVQAGGSLRLSCAASGSILGDYGMGWYRQAPGKERELVAAITWNGDSTYYADSVKGRFTISRDNAKNTVYLQMNSLKPEDTAVYYCAADLQDYKYYPWYGYWGQGTQVTVSS	low polyreactivity
QVQLVESGGGLVQAGGSLRLSCAACGSIFPGYAMGWYREAPGKERELVAAITWNGGRTYSADSVKGRFTISRDNAKNTVYLQMNSLKPEDTAVYYCAVAGYAGLSVKYGYWGQGTQVTVSS	high polyreactivity
QVQLQESGGGLVQAGGSLRLSCSASGNISVTGVMGWYRQAPGKERELVPSIGIGGTTYYADSVKGRFSISRDNATITVYLQMNSLKPQDTAVYYCAARYLYYAYSYWGQGTQVTVSS	low polyreactivity
QVQLVESGGGLVQAGGSLRLSCAASGFTFLVYAMGWYRQAPGKERELVAAISRRGCSTYYADSVKGRFTISRDNAKNTVYLQMNSLKPEDTSVYYCNKYRQQGWEFDYWGQGTQVTVSS	high polyreactivity
QVQLVESGGGLVQAGGSLRLSCAASGSIFTIYAMGWYRQAPGKERELVATITGGGGSTYYADSVKGRFTISRDNAKNTVYLQMNSLKPEDTAVYYCATDFRRTRSYGNSRSYGYWGQGTQVTVSS	low polyreactivity
